Two molecules from publication PMC3335088 (PLoS ONE, 2012) can be followed below.

Settings in all cases: partners not purified
Test [1] addresses T1, MCM4 with 6-His tag in combination with a StrepII tag (UniProt P33991 1-863).
T1 construct: MCM4; The methods describe one MCM4 baculovirus with both tags; also called Strep-MCM4; Strep-tagged MCM4; source: High Five insect cells, baculovirus, in lysate
T1 sequence (looked up): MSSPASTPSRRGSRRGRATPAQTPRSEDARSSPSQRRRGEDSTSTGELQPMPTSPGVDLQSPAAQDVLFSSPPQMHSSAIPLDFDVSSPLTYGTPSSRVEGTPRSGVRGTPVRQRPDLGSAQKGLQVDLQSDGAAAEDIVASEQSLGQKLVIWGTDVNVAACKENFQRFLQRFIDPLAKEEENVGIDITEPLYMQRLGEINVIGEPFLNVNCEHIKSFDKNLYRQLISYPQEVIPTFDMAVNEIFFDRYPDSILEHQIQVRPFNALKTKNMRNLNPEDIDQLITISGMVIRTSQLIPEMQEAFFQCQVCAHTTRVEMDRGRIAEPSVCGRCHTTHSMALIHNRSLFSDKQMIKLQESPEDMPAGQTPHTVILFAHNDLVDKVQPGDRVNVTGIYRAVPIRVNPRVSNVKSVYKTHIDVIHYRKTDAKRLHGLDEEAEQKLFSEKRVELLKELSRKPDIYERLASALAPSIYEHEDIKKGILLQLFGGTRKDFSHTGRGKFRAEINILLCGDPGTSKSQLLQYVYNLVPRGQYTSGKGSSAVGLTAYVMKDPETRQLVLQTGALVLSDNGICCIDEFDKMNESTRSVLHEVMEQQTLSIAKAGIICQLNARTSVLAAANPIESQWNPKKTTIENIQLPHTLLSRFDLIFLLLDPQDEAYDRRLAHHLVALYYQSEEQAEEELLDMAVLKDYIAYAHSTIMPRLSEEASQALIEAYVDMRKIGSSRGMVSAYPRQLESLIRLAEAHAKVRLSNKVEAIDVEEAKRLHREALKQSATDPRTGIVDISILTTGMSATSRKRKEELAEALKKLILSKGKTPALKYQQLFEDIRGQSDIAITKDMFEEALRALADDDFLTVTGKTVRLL
Description: pull-down; co-expression in High Five insect cells; lysis in 50-100 mM Tris-HCl pH 8.0, 150 mM NaCl, 5% glycerol, 0.5% Triton X-100; tagged protein recovered on Ni-NTA, anti-FLAG M2, anti-HA or StrepT-actin resin, 1 hr at 4°C; washes with 300 mM NaCl; Coomassie staining and Western blot.

The target of test [2] is T2, MCM5 with 6-His tag in combination with a triple FLAG tag (UniProt P33992 1-734).
T2 construct: MCM5; also called FLAG-MCM5; 6-His-tagged MCM5; source: High Five insect cells, baculovirus, in lysate; not shown: His6, N-terminal, kept; triple FLAG, N-terminal, kept
T2 sequence (looked up): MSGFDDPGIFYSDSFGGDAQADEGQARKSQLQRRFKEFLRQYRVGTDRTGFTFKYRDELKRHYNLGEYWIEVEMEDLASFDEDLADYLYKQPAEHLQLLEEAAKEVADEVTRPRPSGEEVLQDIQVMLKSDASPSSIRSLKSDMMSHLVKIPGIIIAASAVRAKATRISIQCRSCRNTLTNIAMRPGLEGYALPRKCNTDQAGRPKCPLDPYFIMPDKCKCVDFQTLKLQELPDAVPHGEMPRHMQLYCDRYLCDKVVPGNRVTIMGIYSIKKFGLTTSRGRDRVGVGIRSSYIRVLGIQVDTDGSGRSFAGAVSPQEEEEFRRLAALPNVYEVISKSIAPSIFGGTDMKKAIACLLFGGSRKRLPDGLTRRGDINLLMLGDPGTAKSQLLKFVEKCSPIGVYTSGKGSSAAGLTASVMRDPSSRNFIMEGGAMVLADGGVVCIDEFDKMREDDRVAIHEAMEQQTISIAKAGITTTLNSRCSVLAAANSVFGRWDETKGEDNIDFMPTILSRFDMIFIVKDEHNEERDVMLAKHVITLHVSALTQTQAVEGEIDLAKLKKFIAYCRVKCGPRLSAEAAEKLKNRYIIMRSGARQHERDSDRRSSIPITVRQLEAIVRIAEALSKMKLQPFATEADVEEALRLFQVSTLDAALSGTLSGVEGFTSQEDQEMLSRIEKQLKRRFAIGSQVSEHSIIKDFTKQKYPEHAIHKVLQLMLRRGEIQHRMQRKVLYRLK
The description is as above.

The target of test [3] is T3, MCM6 with 6-His tag in combination with a HA tag (human, UniProt Q14566 1-821).
T3 construct: MCM6; also called HA-MCM6; 6-His-tagged MCM6; source: High Five insect cells, baculovirus, in lysate
T3 sequence (looked up): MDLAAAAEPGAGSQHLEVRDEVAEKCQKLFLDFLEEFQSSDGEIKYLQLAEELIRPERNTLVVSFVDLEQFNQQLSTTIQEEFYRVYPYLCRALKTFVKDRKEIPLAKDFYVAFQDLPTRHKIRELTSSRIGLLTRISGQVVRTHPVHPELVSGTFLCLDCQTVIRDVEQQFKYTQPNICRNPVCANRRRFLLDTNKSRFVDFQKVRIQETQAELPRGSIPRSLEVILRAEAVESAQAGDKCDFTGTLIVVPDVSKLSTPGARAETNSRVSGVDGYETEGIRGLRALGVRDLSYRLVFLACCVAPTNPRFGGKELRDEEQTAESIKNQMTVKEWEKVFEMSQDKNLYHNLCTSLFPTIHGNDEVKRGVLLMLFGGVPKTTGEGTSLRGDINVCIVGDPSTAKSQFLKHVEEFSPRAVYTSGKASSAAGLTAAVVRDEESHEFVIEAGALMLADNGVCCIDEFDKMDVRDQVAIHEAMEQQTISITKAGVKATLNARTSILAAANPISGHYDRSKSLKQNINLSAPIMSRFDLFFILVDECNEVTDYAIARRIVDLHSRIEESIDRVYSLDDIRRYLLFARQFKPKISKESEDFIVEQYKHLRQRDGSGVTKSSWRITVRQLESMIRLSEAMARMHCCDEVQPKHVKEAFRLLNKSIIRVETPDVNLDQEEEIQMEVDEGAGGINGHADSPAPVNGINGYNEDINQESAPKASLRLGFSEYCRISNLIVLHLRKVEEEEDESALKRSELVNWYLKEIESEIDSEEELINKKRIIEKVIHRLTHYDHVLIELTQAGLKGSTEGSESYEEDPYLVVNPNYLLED
The description is as above.

A further test has as its target T4, untagged MCM3 (UniProt P25205 1-808).
T4 construct: MCM3, untagged; construct not described in the methods; also called MCM3 (no tag); source: High Five insect cells, baculovirus, in lysate; co-isolated with His-MCM-BP for the gradient
T4 sequence (looked up): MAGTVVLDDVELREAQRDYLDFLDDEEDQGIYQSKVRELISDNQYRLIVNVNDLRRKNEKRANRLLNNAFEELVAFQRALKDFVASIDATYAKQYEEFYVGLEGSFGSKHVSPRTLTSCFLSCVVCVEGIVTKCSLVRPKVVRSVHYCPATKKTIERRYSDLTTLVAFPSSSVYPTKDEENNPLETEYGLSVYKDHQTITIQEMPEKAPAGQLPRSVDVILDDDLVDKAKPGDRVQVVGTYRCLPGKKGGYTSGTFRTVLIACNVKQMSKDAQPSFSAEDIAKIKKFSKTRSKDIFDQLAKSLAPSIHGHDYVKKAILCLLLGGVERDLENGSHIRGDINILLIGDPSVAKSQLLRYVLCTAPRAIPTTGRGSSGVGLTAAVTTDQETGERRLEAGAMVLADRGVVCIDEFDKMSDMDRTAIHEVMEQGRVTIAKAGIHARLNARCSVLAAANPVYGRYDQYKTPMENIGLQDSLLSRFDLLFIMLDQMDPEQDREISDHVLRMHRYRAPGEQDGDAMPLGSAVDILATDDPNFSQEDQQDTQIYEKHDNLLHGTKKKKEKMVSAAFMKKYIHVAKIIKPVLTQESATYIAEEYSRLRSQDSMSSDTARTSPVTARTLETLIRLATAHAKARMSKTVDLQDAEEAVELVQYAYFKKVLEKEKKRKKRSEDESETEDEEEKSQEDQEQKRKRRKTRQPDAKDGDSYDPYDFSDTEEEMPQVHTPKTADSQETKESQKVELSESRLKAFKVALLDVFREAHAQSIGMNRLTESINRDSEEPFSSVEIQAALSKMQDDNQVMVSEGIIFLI
Description: pull-down; co-expression in High Five insect cells; NaCl of the clarified lysate raised from 0.15 M up to 0.75 M, or deoxycholate added to 0.1 or 0.5% (with 150 mM NaCl), before incubation with Strep-T actin, anti-FLAG or nickel resin; Coomassie staining.

B1: MCM-BP with no tags (natural protein, human, UniProt Q9BTE3 1-642, looked up)
chain: MPCGEDWLSHPLGIVQGFFAQNGVNPDWEKKVIEYFKEKLKENNAPKWVPSLNEVPLHYLKPNSFVKFRCMIQDMFDPEFYMGVYETVNQNTKAHVLHFGKYRDVAECGPQQELDLNSPRNTTLERQTFYCVPVPGESTWVKEAYVNANQARVSPSTSYTPSRHKRSYEDDDDMDLQPNKQKDQHAGARQAGSVGGLQWCGEPKRLETEASTGQQLNSLNLSSPFDLNFPLPGEKGPACLVKVYEDWDCFKVNDILELYGILSVDPVLSILNNDERDASALLDPMECTDTAEEQRVHSPPASLVPRIHVILAQKLQHINPLLPACLNKEESKTCKFVSSFMSELSPVRAELLGFLTHALLGDSLAAEYLILHLISTVYTRRDVLPLGKFTVNLSGCPRNSTFTEHLYRIIQHLVPASFRLQMTIENMNHLKFIPHKDYTANRLVSGLLQLPSNTSLVIDETLLEQGQLDTPGVHNVTALSNLITWQKVDYDFSYHQMEFPCNINVFITSEGRSLLPADCQIHLQPQLIPPNMEEYMNSLLSAVLPSVLNKFRIYLTLLRFLEYSISDEITKAVEDDFVEMRKNDPQSITADDLHQLLVVARCLSLSAGQTTLSRERWLRAKQLESLRRTRLQQQKCVNGNEL
notes: MCM-BP, human; made from pfastBacHT.MCM-BP by excising the 6-His tag; also called untagged MCM-BP; nontagged MCM-BP; source: High Five insect cells, baculovirus, co-expressed, in lysate
With B1, the binding result in test [1], in test [2] and in test [3] was “binds” in each case.

B2: His-tagged MCM-BP (natural protein, human, UniProt Q9BTE3 1-642, looked up)
chain: B1 chain
notes: MCM-BP, human; pfastBacHT.MCM-BP; also called His-MCM-BP; His-BP; source: High Five insect cells, baculovirus; not shown: His6, N-terminal, kept
As for B2, the binding result with untagged MCM3 is “binds”.
